Assay results published in the supplement of paper PMC7877785.
± gives the uncertainty stated by the source.

Experiment: self-splicing fitness, log relative to wild type (ln ratio); higher = more splicing; Tetrahymena group I intron in knt gene, E. coli kanamycin selection, DiMSum; sequences stand for … in CUCUCU…GGAGGGAAAAGUUAUCAGGCAUGCACCUGGUAGCUAGUCUUUAAACCAAUAGAUUGCAUCGGUUUAAAAGGCAAGACCGUCAAAUUGCGGGAAAGGGGUCAACAGCCGUUCAGUACCAAGUCUCAGGGGAAACUUUGAGAUGGCCUUGCAAAGGGUAUGGUAAUAAGCUGACGGACAUGGUCCUAACCACGCAGCCAAGUCCUAAGUCAACAGAUCUUCUGUUGAUAUGGAUGCAGUUCACAGACUAAAUGUCGGUCGGGGAAGAUGUAUUCUUCUCAUAAGAUAUAGUCGGACCUCUCCUUAAUGGGAGCUAGCGGAUGAAGUGAUGCAACACUGGAGCCGCUGGGAACUAAUUUGUAUGCGAAAGUAUAUUGAUUAGUUUUGGAGUACUCGUGGUCG
Summary of the method: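 The eight P1ex-region nucleotides of an intron in the knt kanamycin-resistance gene on pET-22b(+) were all randomised and the library put into E. coli BL21(DE3). Six replicate transformations were grown overnight at 37°C or 30°C on LB agar with or without 25 μg/mL kanamycin, together with 100 μg/mL carbenicillin, 50 μM IPTG and 0.2% rhamnose. Colonies were pooled and amplicon-sequenced on an Illumina HiSeq 2500. Fitness from DiMSum is the error-weighted combination of wild-type-normalised replicate fold changes, kanamycin over none.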

Sequence | self-splicing fitness (ln) (37 °C) | self-splicing fitness (ln) (30 °C)
GACUAGCAAUAUUACGGAGG | -1.68 ± 0.4 | 
GACUAGCAAUAUUACGGAUG | -1.29 ± 0.1 | -2.9 ± 0.11
GACUAGCAAUAUUACGGCAA | -0.302 ± 0.09 | -0.738 ± 0.08
GACUAGCAAUAUUACGGCAG | -2.49 ± 0.23 | -2.84 ± 0.14
GACUAGCAAUAUUACGGCGC | -0.0936 ± 0.17 | 0.0438 ± 0.14
GACUAGCAAUAUUACGGGUC | -2.71 ± 0.28 | -3.22 ± 0.19
GACUAGCAAUAUUACGGUGC | -1.73 ± 0.16 | -2.65 ± 0.14
GACUAGCAAUAUUACGUAAC | -0.875 ± 0.1 | -1.33 ± 0.073
GACUAGCAAUAUUACGUAGC | -1.4 ± 0.1 | -2.47 ± 0.11
GACUAGCAAUAUUACGUCGU | -1.47 ± 0.13 | -3.23 ± 0.18
GACUAGCAAUAUUACGUCUA | -0.852 ± 0.12 | -2.89 ± 0.2
GACUAGCAAUAUUACGUGUA | -0.258 ± 0.069 | -1.06 ± 0.067
GACUAGCAAUAUUACGUUCA | -0.533 ± 0.12 | -0.661 ± 0.11
GACUAGCAAUAUUACGUUGU | -2.17 ± 0.12 | -3.19 ± 0.14
GAGAAGCAAUAUUACGAAAA | -2.2 ± 0.31 | -3.53 ± 0.4
GAGAAGCAAUAUUACGAACC | -0.188 ± 0.22 | -0.324 ± 0.14
GAGAAGCAAUAUUACGAGCA | -0.727 ± 0.14 | -1.79 ± 0.15
GAGAAGCAAUAUUACGCGAA | -1.93 ± 0.17 | -2 ± 0.11
GAGAAGCAAUAUUACGCUGG | -1.64 ± 0.41 | -2.87 ± 0.41
GAGAAGCAAUAUUACGCUUA | -1.24 ± 0.13 | -2.41 ± 0.12
GAGAAGCAAUAUUACGGAAG | -2.39 ± 0.14 | -3.57 ± 0.16
GAGAAGCAAUAUUACGGCUA | -0.0778 ± 0.1 | 0.0865 ± 0.09
GAGAAGCAAUAUUACGGGCC | -2.56 ± 0.41 | -2.03 ± 0.22
GAGAAGCAAUAUUACGGGCU | -1.16 ± 0.14 | -2.57 ± 0.14
GAGAAGCAAUAUUACGGGGA | -2.67 ± 0.28 | -2.34 ± 0.22
GAGAAGCAAUAUUACGGGUA | -2.14 ± 0.16 | -2.02 ± 0.15

Sequence | self-splicing fitness (ln) (37 °C) | self-splicing fitness (ln) (30 °C)
GAGAAGCAAUAUUACGGUCG | -0.253 ± 0.11 | -0.943 ± 0.11
GAGAAGCAAUAUUACGUAAC | -0.536 ± 0.12 | -1.62 ± 0.11
GAGAAGCAAUAUUACGUCCC | -0.337 ± 0.29 | -0.258 ± 0.28
GAGAAGCAAUAUUACGUUAC | -3.05 ± 0.35 | -3.39 ± 0.27
GAGAAGCAAUAUUACGUUGU | -3.31 ± 0.32 | -3.19 ± 0.19
GAGCAGCAAUAUUACGACCA | -1.02 ± 0.15 | -1.17 ± 0.14
GAGCAGCAAUAUUACGACGG | -2.18 ± 0.17 | -4.27 ± 0.26
GAGCAGCAAUAUUACGAGAG | -2.19 ± 0.28 | 
GAGCAGCAAUAUUACGAUUU | -0.211 ± 0.094 | -0.179 ± 0.068
GAGCAGCAAUAUUACGCACA | -0.415 ± 0.14 | -0.256 ± 0.21
GAGCAGCAAUAUUACGCACG | -0.692 ± 0.083 | -1.11 ± 0.061
GAGCAGCAAUAUUACGCAUC | -3.08 ± 0.37 | -3.22 ± 0.2
GAGCAGCAAUAUUACGCCUG | -2.32 ± 0.42 | -2.2 ± 0.19
GAGCAGCAAUAUUACGCGCG | 0.406 ± 0.12 | -1.25 ± 0.1
GAGCAGCAAUAUUACGCUGU | -2.52 ± 0.19 | -3.32 ± 0.18
GAGCAGCAAUAUUACGGACG | -1.72 ± 0.33 | -2.19 ± 0.42
GAGCAGCAAUAUUACGGAUU | 0.538 ± 0.11 | -1.2 ± 0.1
GAGCAGCAAUAUUACGGCCA | -0.361 ± 0.14 | -0.255 ± 0.097
GAGCAGCAAUAUUACGGGAC | -2.74 ± 0.15 | -2.82 ± 0.19
GAGCAGCAAUAUUACGUAGG | -2.54 ± 0.2 | -2.83 ± 0.13
GAGCAGCAAUAUUACGUCAA | -2.12 ± 0.25 | -1.14 ± 0.24
GAGCAGCAAUAUUACGUCAG | -2.12 ± 0.26 | -3.23 ± 0.21
GAGCAGCAAUAUUACGUCGU | -2.39 ± 0.2 | -1.35 ± 0.13
GAGCAGCAAUAUUACGUCUC | -2.23 ± 0.22 | -2.48 ± 0.15
GAGCAGCAAUAUUACGUGAC | -1.64 ± 0.15 | -2.38 ± 0.15
GAGCAGCAAUAUUACGUGCC | -1.34 ± 0.26 | -1.58 ± 0.41

Sequence | self-splicing fitness (ln) (37 °C) | self-splicing fitness (ln) (30 °C)
GAGCAGCAAUAUUACGUUAC | -1.75 ± 0.13 | -2.55 ± 0.14
GAGGAGCAAUAUUACGAAUG | -1.7 ± 0.43 | 
GAGGAGCAAUAUUACGACCG | -0.621 ± 0.31 | 
GAGGAGCAAUAUUACGACGG | -2.07 ± 0.31 | -3.25 ± 0.3
GAGGAGCAAUAUUACGAGAG | -2.76 ± 0.41 | -2.77 ± 0.32
GAGGAGCAAUAUUACGAGCA | -2.4 ± 0.46 | -3.52 ± 0.48
GAGGAGCAAUAUUACGAUAU | -2.53 ± 0.45 | -1.34 ± 0.26
GAGGAGCAAUAUUACGCAGA | -2.86 ± 0.32 | -3.91 ± 0.34
GAGGAGCAAUAUUACGCGGU | -2.76 ± 0.31 | -3.21 ± 0.28
GAGGAGCAAUAUUACGCUCA | -0.181 ± 0.27 | -0.973 ± 0.24
GAGGAGCAAUAUUACGGAAA | -2.94 ± 0.26 | -3.13 ± 0.16
GAGGAGCAAUAUUACGGCUA | -1.37 ± 0.11 | -1.75 ± 0.12
GAGGAGCAAUAUUACGGGAC | -2.41 ± 0.27 | -2.42 ± 0.27
GAGGAGCAAUAUUACGGGGG | -3.13 ± 0.47 | -3.09 ± 0.27
GAGGAGCAAUAUUACGUCGC | -1.54 ± 0.33 | 
GAGGAGCAAUAUUACGUGGU | -2.77 ± 0.33 | -4.05 ± 0.34
GAGGAGCAAUAUUACGUGUG | -2.54 ± 0.26 | -2.33 ± 0.22
GAGGAGCAAUAUUACGUGUU | -3.82 ± 0.42 | -3.03 ± 0.21
GAGGAGCAAUAUUACGUUCA | -0.275 ± 0.11 | -1.18 ± 0.081
GAGUAGCAAUAUUACGAAGG | -2.74 ± 0.44 | 
GAGUAGCAAUAUUACGACAG | -2.99 ± 0.24 | -3.07 ± 0.44
GAGUAGCAAUAUUACGACAU | -0.127 ± 0.033 | -0.282 ± 0.014
GAGUAGCAAUAUUACGACGG | -1.57 ± 0.25 | -2.74 ± 0.2
GAGUAGCAAUAUUACGAGUG | -0.452 ± 0.11 | -2.34 ± 0.091
GAGUAGCAAUAUUACGAUAG | -2.61 ± 0.28 | -3.53 ± 0.26
